Target: C-terminal His-tagged Caskin1 SAM mutant G520E (human) (UniProt Q8WXD9)
Test: SPR

Sequence of C-terminal His-tagged Caskin1 SAM mutant G520E (human) (Q8WXD9 470-605 G520E): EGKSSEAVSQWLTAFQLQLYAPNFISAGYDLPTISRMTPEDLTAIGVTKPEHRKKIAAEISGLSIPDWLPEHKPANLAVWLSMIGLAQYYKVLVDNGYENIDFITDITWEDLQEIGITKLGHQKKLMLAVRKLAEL

Caskin1 SAM mutant G566K (from UniProt Q8WXD9 470-605) (domain or fragment)
Kd: 22 µM

From paper PMC3240820
